# From patent US20170189363A1, “GASTRIC ACID MODULATORS FOR ORAL DELIVERY OF PEPTIDES AND PROTEINS” (NOVEN PHARMACEUTICALS, INC., priority 2015, published 2017)
# What was measured:
# Format in all cases: in vivo
# [1] = Blood glucose after intravenous ranitidine hydrochloride plus oral insulin/SNAC capsules; details: rats
# Protocol: Rats were administered ranitidine hydrochloride (10 mg/kg) intravenously one hour prior to oral dosing with capsules comprising 0.3 mg insulin/20 mg SNAC. In vivo delivery of insulin was measured indirectly by assessing blood glucose levels at periodic intervals using a glucometer. Results are shown in FIG. 1A (each line represents one treated animal). For comparison, rats were orally administered capsules comprising 0.3 mg insulin/20 mg SNAC without administration of ranitidine hydrochloride, and blood glucose levels were assessed. Results are shown in FIG. 1B (each line represents one treated animal).
# [2] = Blood glucose after oral capsules of insulin/SNAC/ranitidine hydrochloride; details: rats
# Protocol: Rats were orally administered capsules comprising 0.3 mg insulin/10 mg SNAC/10 mg ranitidine hydrochloride, and blood glucose levels were measured at periodic intervals. Results are shown in FIG. 2A (each line represents one treated animal). For comparison, rats were orally administered capsules comprising 0.3 mg insulin/10 mg SNAC (i.e., without ranitidine hydrochloride), and blood glucose levels were assessed. Results are shown in FIG. 2B (each line represents one treated animal).
# [3] = Blood glucose after capsule-in-capsule insulin/SNAC with ranitidine hydrochloride; details: dogs
# Protocol: In particular, a size 0 capsule containing insulin and SNAC was placed inside an empty size 00 capsule, which was placed inside a size 000 capsule, optionally containing ranitidine hydrochloride. The capsules were administered to dogs and blood glucose levels were assessed. Results are shown in FIG. 3 (♦—with ranitidine hydrochloride; ▪—without ranitidine hydrochloride).
substance,measurement,setting,value
insulin,bioavailability of insulin,"[1]; oral capsules 0.3 mg insulin/20 mg SNAC with i.v. ranitidine hydrochloride vs without, inferred from blood glucose",greater
same,blood glucose levels,"[1]; oral capsules 0.3 mg insulin/20 mg SNAC, ranitidine hydrochloride 10 mg/kg intravenously one hour prior, compared with no ranitidine hydrochloride, FIG. 1A vs 1B",lower
same,blood glucose levels,"[2]; oral capsules 0.3 mg insulin/10 mg SNAC/10 mg ranitidine hydrochloride compared with 0.3 mg insulin/10 mg SNAC, FIG. 2A vs 2B",lower
same,bioavailability of insulin,"[2]; oral capsules with 10 mg ranitidine hydrochloride vs without, inferred from blood glucose",greater
same,blood glucose levels,"[3]; capsule-in-capsule 3.6 mg insulin and 500 mg SNAC inner, 150 mg ranitidine hydrochloride outer, compared with no ranitidine hydrochloride, FIG. 3",lower
same,bioavailability of insulin,"[3]; capsule-in-capsule with 150 mg ranitidine hydrochloride vs without, inferred from blood glucose",greater
